experiment: yeast display, Sf9 membrane polyspecificity reagent, FACS + sequencing; frameworks hold sequencing errors
Outline: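 Sorting gates, low and high (top ~1%), were placed on anti-HA fluorescence to track expression and on streptavidin fluorescence to track reagent binding. A clone's polyreactivity label is taken from the gate it came out of. The reagent was 10% biotinylated, detergent-solubilized Sf9 membrane, applied for 1 hour at 4 °C to galactose-induced yeast display cells.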

Question: With “QVQLVESGGGLVQAGGSLRLSCAASGSIFTHNAMGWYRQAPGKERVLVAAISSGGSTNYADSVKGRFTISRDNAKNTVYLQMNSLKPEDTAVYYCAKSIDGWYWRRRRYDYWGQGTQVTVSS” as the sequence, how does the “polyreactivity (PSR sort gate)” value read?
Answer: low polyreactivity

Question: Which “polyreactivity (PSR sort gate)” value does the source give for “QVQLVESGGGLVQAGGSLRLSCAASGSIFTHYAMGWYRQAPGTERELVAGITSSGGSTYADSVKGRFTISRDNAKNTVYLQMNSLKPEDTAVYYCAAEQLRSRLIEYDYWRQGTQVTVSS” here?
Answer: low polyreactivity

Question: Which “polyreactivity (PSR sort gate)” value does the source give for “QVQLVESGGGLVQAGGSLRLSCAASGSIFTINAMGWYRQAPGKERELVAAISFSGGRTYYADSVKGRFTISRDNAKITVYLQMNSLKPEDTAVYYCAAPFYYYGVRFDYWGQGTQVTVSS” here?
Answer: high polyreactivity

Question: With “QVQLVESGGGLVQAGGSLRLSCAASGSIFTIYAMGWYRQAPGKERELVAAIRESSGSTYYADSVKGRFTISRDYAKNTVYFQINSLKPEDTAVYYCAADINYSSYDYWGQGTQVTVSS” as the sequence, how does the “polyreactivity (PSR sort gate)” value read?
Answer: high polyreactivity

Question: Which “polyreactivity (PSR sort gate)” value does the source give for “QVQLVESGGGLVQAGGSLRLSCAASGSIFTIYAMGWYRQAPGKERELVATITGIADSTYYADSVKGRFTISRDNAKNTVYLQMNSLKPEDTAVYYCAADKYVAEYDYWGQGTQVTVSS” here?
Answer: low polyreactivity

Question: With “QVQLVESGGGLVQAGGSLRLSCAASGSIFTKYAMGWYRQAPGKERELVAAINARGGSTYYADSVKGRFTISRDNAKNTVYLQMNSLKPEDTAVYYCAARYGVGRADYYWGHGTQVTVSS” as the sequence, how does the “polyreactivity (PSR sort gate)” value read?
Answer: high polyreactivity

Question: For “QVQLVESGGGLVQAGGSLRLSCAASGSIFTKYAMGWYRQAPGKERELVAAISASGGSTYYADSVKGRFTISRDNAKNTVYLQMNSLKPEDTAVYYCAARYWVREDYWGQGTQVTVSS”, which “polyreactivity (PSR sort gate)” value is on record?
Answer: high polyreactivity

Question: With “QVQLVESGGGLVQAGGSLRLSCAASGSIFTKYAMGWYRQAPGKERELVAAISSSGGSTYYADSVKGRFTISRDNAKNTVYLQMNSLKPEDTAVYYCAAEAVYYRSWRYYYWGQGTQVTVSS” as the sequence, how does the “polyreactivity (PSR sort gate)” value read?
Answer: high polyreactivity

Question: For “QVQLVESGGGLVQAGGSLRLSCAASGSIFTLNTMGWYIQAPGKERELVAVISRSGDRTYYADSVKGRFTISRDNAKNTVYLQMNSLKPEDTAVYYCAADTTKRVRGYDYWGQGTQVTVSS”, which “polyreactivity (PSR sort gate)” value is on record?
Answer: high polyreactivity

Question: Which “polyreactivity (PSR sort gate)” value does the source give for “QVQLVESGGGLVQAGGSLRLSCAASGSIFTLYAMGWYRQAPGKEREFVAGISFSTGRTYYADSVKGRFTISRDNAKNTVYLQMNSLKPEDTAVYYCAAYVSHYWYGVYRDGYWGQGTQVTVSS” here?
Answer: low polyreactivity

Question: Which “polyreactivity (PSR sort gate)” value does the source give for “QVQLVESGGGLVQAGGSLRLSCAASGSIFTLYAMGWYRQAPGKERELVAAINRSGGSTYYADSVKGRFTISRDNAKNTVYLQMNSVKPEATAVYYCNARQYTGRRYDYWGQGTQVTVSS” here?
Answer: high polyreactivity

Question: For “QVQLVESGGGLVQAGGSLRLSCAASGSIFTLYAMGWYRQAPGKERELVAAITRSGGSTYYADSVKGRFTISRDNAKNTVYLQMNSLKPEDTAVYYCNKATAYGLDYWGQATQVTVSS”, which “polyreactivity (PSR sort gate)” value is on record?
Answer: high polyreactivity

Question: With “QVQLVESGGGLVQAGGSLRLSCAASGSIFTLYAMGWYRQAPGKERELVATINWSGGSTSYADSVKGRFTISRDNAKNTVYLQMNSLKPEDTAVYYCAADYYFWHGTGYDYWGQGTQVTVSS” as the sequence, how does the “polyreactivity (PSR sort gate)” value read?
Answer: low polyreactivity

Question: With “QVQLVESGGGLVQAGGSLRLSCAASGSIFTPNAMGGYRQAPGKERELVAAISSSSDRTYYADSVKGRFTISRDNAKNTVYLQMNRLKPEDTAVYYCAAYAQKRYYWGQGTQVTVSS” as the sequence, how does the “polyreactivity (PSR sort gate)” value read?
Answer: high polyreactivity

Question: Which “polyreactivity (PSR sort gate)” value does the source give for “QVQLVESGGGLVQAGGSLRLSCAASGSIFTPNAMGWYRQAPGKERELVAAISWSGARTYYADSVKGRFTISRDNAKNTVYLQMNSLKPEDTAVYYSYAFGSWGQGTQVTVSS” here?
Answer: high polyreactivity

Question: Which “polyreactivity (PSR sort gate)” value does the source give for “QVQLVESGGGLVQAGGSLRLSCAASGSIFTPYAMGWYRQAPGKERELGATISWSGGRTYYADSVKGRFTISRDNAKNTVYLQMNSLKPEDSAVYYCAARGYSSEYDYWGQGTQVTVSS” here?
Answer: high polyreactivity

Question: With “QVQLVESGGGLVQAGGSLRLSCAASGSIFTPYAMGWYRQAPGKERELVAAISWRGGNTYYADSVKGRFTISRDNAKNTFYLQMNSLKPEETAVYYCAAEQYSVYETGSYDYWGQGTQVTVSS” as the sequence, how does the “polyreactivity (PSR sort gate)” value read?
Answer: low polyreactivity

Question: Which “polyreactivity (PSR sort gate)” value does the source give for “QVQLVESGGGLVQAGGSLRLSCAASGSIFTPYAMGWYRQAPGKEREVVATITWTGGSTYYADSVKGRFTISRDNAINTVYLQMNSLKPEDTAVYYCAADTYRSGRAYYYWGQGTQVTVSS” here?
Answer: low polyreactivity

Question: Which “polyreactivity (PSR sort gate)” value does the source give for “QVQLVESGGGLVQAGGSLRLSCAASGSIFTQYAMGWYRQAPGKERELVAAITSSGGSTHYADSVKGRFTISRDNAKNTVYLQMNSLKPEDTAVYYCAVPSFVYATFPYGYWGQGTQVTVSS” here?
Answer: low polyreactivity

Question: For “QVQLVESGGGLVQAGGSLRLSCAASGSIFTQYTMGWYRQAPGKERELVAAISRSGGRTYYADSVKGRFTISRDIAKNTVYLQMNSLKPEDTAVYYCAAEYTDKYEYWGQGTQVTVSS”, which “polyreactivity (PSR sort gate)” value is on record?
Answer: high polyreactivity

Question: With “QVQLVESGGGLVQAGGSLRLSCAASGSIFTRNAMGWYRQAPGKEREFVAAISSSGVSTYYADSVKGRFTISRDNAKNTVYLQMNSLKPEDTAVYYCAARWGTKSGRYDYWGQGTQVTVSS” as the sequence, how does the “polyreactivity (PSR sort gate)” value read?
Answer: high polyreactivity

Question: Which “polyreactivity (PSR sort gate)” value does the source give for “QVQLVESGGGLVQAGGSLRLSCAASGSIFTRYAMGGYRQAPGKERELVAAITAGGSSPYYADSVKGRFTISRDNAKNTVYLQMNSLKPEDTAVYYCNAVWWHPTDYDYWGQGSQVTVSS” here?
Answer: low polyreactivity

Question: Which “polyreactivity (PSR sort gate)” value does the source give for “QVQLVESGGGLVQAGGSLRLSCAASGSIFTSNAMGWYRQAPGKERELVAAISWSGTSTYYADSVKGRFTISRDNAKNTVYLQMNSLKPEDTAVYYCNADTNYWEDDYWGQGTQVTVSS” here?
Answer: low polyreactivity

Question: For “QVQLVESGGGLVQAGGSLRLSCAASGSIFTSYAMGWYRQAPGKERELVAAIDWSGGTTYYADSVKGRFTISRDNAKNPVYLQMNSLKPEDTAVYNRAADIYKYTVGSYDYWGQGTQVTVSS”, which “polyreactivity (PSR sort gate)” value is on record?
Answer: low polyreactivity

Question: Which “polyreactivity (PSR sort gate)” value does the source give for “QVQLVESGGGLVQAGGSLRLSCAASGSIFTTNAMGWYRQAPGKERELVARIDRAGSTYYADSVKGRFTISRDNAKNTVYLQMNSLKPEDTSVYYCAVEAVLSRPYATKFDYWGQGTEVTVSS” here?
Answer: low polyreactivity

Question: Which “polyreactivity (PSR sort gate)” value does the source give for “QVQLVESGGGLVQAGGSLRLSCAASGSIFTTYAMGWYRQAPGKERELVAVISRRGGSTYYADSVKGRFTISRDNAKNTVYLQMNSLKPEDTAVYYCNAAYVWYRIFVRRDYWGQGTQVTVSS” here?
Answer: high polyreactivity

Question: Which “polyreactivity (PSR sort gate)” value does the source give for “QVQLVESGGGLVQAGGSLRLSCAASGSIFTVNAMGWYRQAPGKERELVATISVTGGSTYADSVKGRFTISRENAKNTVYLQMNSLKPEDTAVYYCAADKTVRWDFDYRGQGTQVTVSS” here?
Answer: low polyreactivity

Question: Which “polyreactivity (PSR sort gate)” value does the source give for “QVQLVESGGGLVQAGGSLRLSCAASGSIFTVYAIGWYRQAPGKEREFVADIDSGGTYYADSVKGRFTISRDNAKNTVYLQMNSLKPEDSAVYYCAALAALDYGQLYLADDDYWGQGTQVTVSS” here?
Answer: low polyreactivity

Question: For “QVQLVESGGGLVQAGGSLRLSCAASGSIFTWNVKGWYRQAPGKERELVAAISSGGSTNYADSVKGRFTISRDNAKNTVYLQMNSLKPEDTAVYYCATYFRVWYRSYDYWGQGTQVTVSS”, which “polyreactivity (PSR sort gate)” value is on record?
Answer: high polyreactivity

Question: For “QVQLVESGGGLVQAGGSLRLSCAASGSIFTWYAMGWSRQAPGKERELVAAITRGGSTYADSVKGRFTISRDNANYTVYLQMNSLKPADTAVYYCNAVYGVYDFNYWGQGTQVTVSS”, which “polyreactivity (PSR sort gate)” value is on record?
Answer: low polyreactivity

Question: With “QVQLVESGGGLVQAGGSLRLSCAASGSIFTWYAMGWYRQAPGKERELVAAISEDGGSTYYADSVKGRFTISRDNAKNTVYLQMNSLKPEDTAVYYCATPVASVTGYDYWGQGTQVTVSS” as the sequence, how does the “polyreactivity (PSR sort gate)” value read?
Answer: low polyreactivity

Question: Which “polyreactivity (PSR sort gate)” value does the source give for “QVQLVESGGGLVQAGGSLRLSCAASGSIFTWYAMGWYRQAPGKERELVAAITTGGDTYYADSVKGRFTISRDNAKNTVYLQMNSLKPEDTAVYYCAATPTYWYLCSPYDYWGQGTQVTVSS” here?
Answer: low polyreactivity

Question: With “QVQLVESGGGLVQAGGSLRLSCAASGSIFTYNAMGWYRQAPGKERELVAAISRGGGRTYYADSVKGRFTISRDNAKNTVYLQMNSLKPEDTAVYYCAADIYVRQRYPYYYWGQGTQVTVSS” as the sequence, how does the “polyreactivity (PSR sort gate)” value read?
Answer: high polyreactivity

Question: For “QVQLVESGGGLVQAGGSLRLSCAASGSIFTYNAMGWYRQAPGKERELVAAITSSSGSSTYADSVKGRFTISRDNAKNTVYLQMNSLKPEDTAVYYCAAPILSFPSPYVQYDYWGQGTQVTVSS”, which “polyreactivity (PSR sort gate)” value is on record?
Answer: low polyreactivity

Question: With “QVQLVESGGGLVQAGGSLRLSCAASGSIFTYNTMGWYRQAPGKERELVAAISSGGRTYYADSVKGRFTISRDNAKNTVYLQMNSLKPEDTAVYYCAARYYFWGQGTQVTVSS” as the sequence, how does the “polyreactivity (PSR sort gate)” value read?
Answer: high polyreactivity

Question: With “QVQLVESGGGLVQAGGSLRLSCAASGSIFTYYAMGWYRQAPGKEREFVAAISRRGGSTYYADSVKGRFTISRDNAKNTVYLQMNSLKPEDTAVYYCAADRWTRTLVKVIGRYYYWGQGTQVTVSS” as the sequence, how does the “polyreactivity (PSR sort gate)” value read?
Answer: high polyreactivity

Question: With “QVQLVESGGGLVQAGGSLRLSCAASGSIFTYYAMGWYRQAPGKERELVAAISLDGGSTYYADSVKGRFTISRDNAKNTVYLQMNSLKPEDTAVYYCAADYRFFPYTYLYDYWGQGTQVTVSS” as the sequence, how does the “polyreactivity (PSR sort gate)” value read?
Answer: low polyreactivity

Question: For “QVQLVESGGGLVQAGGSLRLSCAASGSIFTYYAMGWYRQAPGKERELVAAISRRGTRTYYADSVKGRFTISRDNAKNTVYLQMNSLKPEDTAVYYCAAEYTETGTAKMEYWGQGTQVTVSS”, which “polyreactivity (PSR sort gate)” value is on record?
Answer: high polyreactivity

Question: With “QVQLVESGGGLVQAGGSLRLSCAASGSIFTYYAMGWYRQAPGKERELVAAITSTGGSTYYADSVKGRFTISRDNAKNTVYLQMNSQKPEDTAVYYCATDYGYYDYWGQGTQVTVSS” as the sequence, how does the “polyreactivity (PSR sort gate)” value read?
Answer: low polyreactivity

Question: For “QVQLVESGGGLVQAGGSLRLSCAASGSIFTYYVMGWYRQAPGKERELVAAITISGGSTYYADSVKGRFTISRDNAKNTVYLQMNRLNPEDTAVYYCAAEEVYYEADGFLYSYDYWGKGTQVTVSS”, which “polyreactivity (PSR sort gate)” value is on record?
Answer: high polyreactivity

Question: For “QVQLVESGGGLVQAGGSLRLSCAASGSIFVANAMGWYRQAPGKERELVAVISSGGGSTSYADSVKGRFTISRDNAKNTVYLQMSSLKPEDTAVYDCTRRRYDAGSTMGYWGQGTQVTVSS”, which “polyreactivity (PSR sort gate)” value is on record?
Answer: low polyreactivity

Source: the nanobody polyreactivity screen of Harvey et al. (2022)
